Reference: US20230212294A1

Key:
[1] = target: Human B7-H3-his (human) (UniProt Q5ZPR3); assay: ELISA, human B7-H3 at protein level (second run)
[2] = target: Human B7-H3-his (human) (UniProt Q5ZPR3); assay: ELISA, antigen coated at 2 µg/mL

| Binder | EC50 [1] [µg/mL] | EC50 [2] [µg/mL] |
| --- | --- | --- |
| IL-P5-C06-H2L2 (antibody, V domains shown) VH: QVQLVQSGAEVKKPGASVKVSCKGSGYTFTDYAIHWGRQAPGQGLEWIGIINTYNGNSNYAQKFQGRATMTRDTSTSTAYMELSRLRSEDTAVYYCARNYGSSFNWYFDVWGQGTTVTVSS VL: DIQLTQSPSSLSASVGDRITITCRASSSISSNYLHWYQQKPGKAPKLLIYSTSNLASGVPSRFSGSGSGTDFTLTISSVQPEDFATYYCQQYSGYPLTFGQGTKLELK | 0.147 |  |
| IL-P5-C06-H1L3 (antibody, V domains shown) VH: QVQLVQSGAEVKKPGASVKVSCKGSGYTFTDYAIHWARQAPGQGLEWIGIINTYNGNSNYAQKFQGRATMTVDKSTSTAYMELSRLRSEDTAVYYCARNYGSSFNWYFDVWGQGTTVTVSS VL: DIQLTQSPSSLSASVGDRVTITCRASSSISSNYLHWYQQKPGKAPKLLIYSTSNLASGVPSRFSGSGSGTDFTLTISSLQPEDFATYYCQQYSGYPLTFGQGTKLELK | 0.164 |  |
| IL-P5-C06-H2L3 (antibody, V domains shown) VH: QVQLVQSGAEVKKPGASVKVSCKGSGYTFTDYAIHWGRQAPGQGLEWIGIINTYNGNSNYAQKFQGRATMTRDTSTSTAYMELSRLRSEDTAVYYCARNYGSSFNWYFDVWGQGTTVTVSS VL: DIQLTQSPSSLSASVGDRVTITCRASSSISSNYLHWYQQKPGKAPKLLIYSTSNLASGVPSRFSGSGSGTDFTLTISSLQPEDFATYYCQQYSGYPLTFGQGTKLELK | 0.151 |  |
| IL-P5-C06-H2L4 (antibody, V domains shown) VH: QVQLVQSGAEVKKPGASVKVSCKGSGYTFTDYAIHWGRQAPGQGLEWIGIINTYNGNSNYAQKFQGRATMTRDTSTSTAYMELSRLRSEDTAVYYCARNYGSSFNWYFDVWGQGTTVTVSS VL: DIQMTQSPSSLSASVGDRVTITCRASSSISSNYLHWYQQKPGKAPKLLIYSTSNLQSGVPSRFSGSGSGTDFTLTISSLQPEDFATYYCQQYSGYPLTFGQGTKLELK | 0.223 |  |
| IL-P5-C06-H1L1 (antibody, V domains shown) VH: QVQLVQSGAEVKKPGASVKVSCKGSGYTFTDYAIHWARQAPGQGLEWIGIINTYNGNSNYAQKFQGRATMTVDKSTSTAYMELSRLRSEDTAVYYCARNYGSSFNWYFDVWGQGTTVTVSS VL: DIQLTQSPSSMSASVGDRITITCRASSSISSNYLHWYQQKPGKSPKLLIYSTSNLASGVPSRFSGSGSGTDYTLTISSVQPEDFATYYCQQYSGYPLTFGQGTKLELK | 0.206 |  |
| IL-P5-C06-H1L4 (antibody, V domains shown) VH: QVQLVQSGAEVKKPGASVKVSCKGSGYTFTDYAIHWARQAPGQGLEWIGIINTYNGNSNYAQKFQGRATMTVDKSTSTAYMELSRLRSEDTAVYYCARNYGSSFNWYFDVWGQGTTVTVSS VL: DIQMTQSPSSLSASVGDRVTITCRASSSISSNYLHWYQQKPGKAPKLLIYSTSNLQSGVPSRFSGSGSGTDFTLTISSLQPEDFATYYCQQYSGYPLTFGQGTKLELK | 0.237 |  |
| IL-P5-C06-H3L3 (antibody, V domains shown) VH: QVQLVQSGAEVKKPGASVKVSCKASGYTFTDYAIHWGRQAPGQGLEWMGIINTYNGNSNYAQKFQGRVTMTRDTSTSTAYMELSRLRSEDTAVYYCARNYGSSFNWYFDVWGQGTTVTVSS VL: DIQLTQSPSSLSASVGDRVTITCRASSSISSNYLHWYQQKPGKAPKLLIYSTSNLASGVPSRFSGSGSGTDFTLTISSLQPEDFATYYCQQYSGYPLTFGQGTKLELK | 0.151 |  |
| IL-P5-C06-H3L4 (antibody, V domains shown) VH: QVQLVQSGAEVKKPGASVKVSCKASGYTFTDYAIHWGRQAPGQGLEWMGIINTYNGNSNYAQKFQGRVTMTRDTSTSTAYMELSRLRSEDTAVYYCARNYGSSFNWYFDVWGQGTTVTVSS VL: DIQMTQSPSSLSASVGDRVTITCRASSSISSNYLHWYQQKPGKAPKLLIYSTSNLQSGVPSRFSGSGSGTDFTLTISSLQPEDFATYYCQQYSGYPLTFGQGTKLELK | 0.156 |  |
| IL-P5-B01 (antibody, V domains shown) VH: EVQLQESGPSLVKPSQTLSLTCSVTGDSITSGSWNWIRKFPGNKLEYMGYISYSGSIYYNPSLKSRISITRDTSKNQYYLQLNSVTTEDTATYYCARGNPAWFAYWGQGTLVTVSA VL: DIVMTQSQKFMSTSVGDRVSVTCKASQNVGTNVAWYQQKPGQSPKALIYSASYRYSGVPDRFTGSGSGTDFTLTISNVQSEDLAEYFCQQYNSYPYTFGGGTKLEIK | 0.248 | 0.137 |
| IL-P5-C06 (antibody, V domains shown) VH: QVQLQQSGPELVRPGVSVKISCKGSGYTFTDYAIHWAKQGHAKSLEWIGIINTYNGNSNYNQNFKGKATMTVDKSSSTAYMELTRLTSEDSAIYYCARNYGSSFNWYFDVWGQGTTLTVSS VL: DIVLTQSPTTMAASPGEKITITCSASSSISSNYLHWYQQKPGFSPKLLIYSTSNLASGVPARFSGSGSGTSYSLTISSVEAEDAATYYCQQYSGYPLTFGAGTKLELK | 0.302 | 0.177 |

The remaining lines, values ahead:

| EC50 [1] [µg/mL] | EC50 [2] [µg/mL] | Binder |
| --- | --- | --- |
| 0.0395 |  | IL-P7-C05-H4L3 (antibody, V domains shown) VH: EVQLVESGGGLVQPGGSLRLSCAASGFTFSSYAMSWVRQAPGKGLELVAAINSNGGSTYYADSVKGRFTISRDNAKNTLYLQMSSLRAEDTAVYYCTRNEEFRRGLAYWGQGTLVTVSS VL: DIQMTQSPSSLSASVGDRVTITCRASENIYSNLAWYQQKPGKAPKLLIYAASNLQSGVPSRFSGSGSGTDYTLTISSLQPEDFATYYCQHFWGTPPWTFGQGTKLEIK |
| 0.051 |  | IL-P7-C05-H2L2 (antibody, V domains shown) VH: EVQLVESGGGLVQPGGSLRLSCAASGFTFSSYGMSWVRQAPGKGLELVATINSNGGTTYYADSVKGRFTISRDNAKNTLYLQMSSLRAEDTAVYYCTRNEEFRRGLAYWGQGTLVTVSS VL: DIQMTQSPSSLSASVGDRVTITCRASENIYSNLAWYQQKPGKAPKLLVYAATNLQSGVPSRFSGSGSGTDYTLTISSLQPEDFATYYCQHFWGTPPWTFGQGTKLEIK |
| 0.035 |  | IL-P7-C05-H4L1 (antibody, V domains shown) VH: EVQLVESGGGLVQPGGSLRLSCAASGFTFSSYAMSWVRQAPGKGLELVAAINSNGGSTYYADSVKGRFTISRDNAKNTLYLQMSSLRAEDTAVYYCTRNEEFRRGLAYWGQGTLVTVSS VL: DIQMTQSPSSLSASVGDRVTITCRASENIYSNLAWYQQKPGKAPKLLVYAATNLADGVPSRFSGSGSGTDYTLTISSLQPEDFATYYCQHFWGTPPWTFGQGTKLEIK |
| 0.071 |  | IL-P7-C05-H3L3 (antibody, V domains shown) VH: EVQLVESGGGLVQPGGSLRLSCAASGFTFSSYGMSWVRQAPGKGLELVAAINSNGGSTYYADSVKGRFTISRDNAKNTLYLQMSSLRAEDTAVYYCTRNEEFRRGLAYWGQGTLVTVSS VL: DIQMTQSPSSLSASVGDRVTITCRASENIYSNLAWYQQKPGKAPKLLIYAASNLQSGVPSRFSGSGSGTDYTLTISSLQPEDFATYYCQHFWGTPPWTFGQGTKLEIK |
| 0.111 |  | IL-P7-C05-H2L1 (antibody, V domains shown) VH: EVQLVESGGGLVQPGGSLRLSCAASGFTFSSYGMSWVRQAPGKGLELVATINSNGGTTYYADSVKGRFTISRDNAKNTLYLQMSSLRAEDTAVYYCTRNEEFRRGLAYWGQGTLVTVSS VL: DIQMTQSPSSLSASVGDRVTITCRASENIYSNLAWYQQKPGKAPKLLVYAATNLADGVPSRFSGSGSGTDYTLTISSLQPEDFATYYCQHFWGTPPWTFGQGTKLEIK |
| 0.026 |  | IL-P7-C05-H3L1 (antibody, V domains shown) VH: EVQLVESGGGLVQPGGSLRLSCAASGFTFSSYGMSWVRQAPGKGLELVAAINSNGGSTYYADSVKGRFTISRDNAKNTLYLQMSSLRAEDTAVYYCTRNEEFRRGLAYWGQGTLVTVSS VL: DIQMTQSPSSLSASVGDRVTITCRASENIYSNLAWYQQKPGKAPKLLVYAATNLADGVPSRFSGSGSGTDYTLTISSLQPEDFATYYCQHFWGTPPWTFGQGTKLEIK |
| 0.088 | 0.0424 | IL-P6-C08 (antibody, V domains shown) VH: EVKLVESGGDLVKPGGSLKLSCAASGFTFSSYGMSWVRQTSDKRLEWVATISGGGRYTYYPDSVKGRFTISRDSSKNTLYLQMSSLKSEDTAMYYCVRHYDGYLDYWGLGTTLTVSS VL: DIQMIQSPASLSASVGETVTITCRASENIYSYLAWYQQKQGKSPQLLVYNAKTLAEGVPSRFSGSGSGTQFSLKINSLQPEDFGSYYCQHHYGTPPYTFGGGTKLEIK |
| 0.044 | 0.0788 | IL-P7-C05 (antibody, V domains shown) VH: EVQLVESGGDLVQPGGSLKLSCAASGFTFSSYGMSWVRQTPDKRLELVATINSNGGTTYYPDSVKGRFTISRDNAKHTLYLQMSSLKSEDTAMYYCTRNEEFRRGLAYWGQGTLVTVSA VL: DIQMIQSPASLSVSVGETVTITCRASENIYSNLAWYQQKQGKSPQLLVYAATNLADGVPSRFSGSGSGTQYSLKINSLQSEDFGSYYCQHFWGTPPWTFGGGTKLEIK |
| 0.053 |  | IL-P7-C05-H1L1 (antibody, V domains shown) VH: EVQLVESGGGLVQPGGSLRLSCAASGFTFSSYGMSWVRQAPGKGLELVATINSNGGTTYYPDSVKGRFTISRDNAKHTLYLQMSSLRAEDTAVYYCTRNEEFRRGLAYWGQGTLVTVSS VL: DIQMTQSPSSLSASVGDRVTITCRASENIYSNLAWYQQKPGKAPKLLVYAATNLADGVPSRFSGSGSGTDYTLTISSLQPEDFATYYCQHFWGTPPWTFGQGTKLEIK |
| 0.172 | 0.195 | IL-P7-A06 (antibody, V domains shown) VH: QVQLQQSGPEVVRPGVSVKISCKGSGYTFTDYAMHWVKQSHAKSLEWIGIINTYNGNTNYNQKFKGKATMTVDKSSSTAYMEFARLTSEDSAIYYCARSRGPWDRYFDVWGAGTTVTVSS VL: DIVMTQSQKFMSTSVGDRVSVTCKASQNVGTAVAWYQQKPGQSPKLLIYSASNRYTGVPDRFTGSGSGTDFTLTISNMQSEDLADYFCQQYSSYPFTFGSGTKLEIK |
| 0.182 | 0.23 | IL-P6-C11 (antibody, V domains shown) VH: EVQLQQSGPELVKPGASVRISCKTSGYTFTDYVIHWVKQNHGGSLEWIGGINRDSGGTTYNQKFQDKVTLTVDKSSNTAYMELRSLTSEDSAVYYCTKWKFPWYFDVWGAGTTVTVSS VL: DIELTQSPAIMSASPGEKVTMTCSASSSISYMHWYQQKPGTSPKRWIYDTSKLASGVPARFSGSGSGTSYSLTISRVEAEDAATYYCQQWSSNPLTFGSGTKLEIK |
| 0.194 | 0.132 | IL-P6-B07 (antibody, V domains shown) VH: EVQLQQSGPELVKPGASVRISCKTSGYTFTEYVIHWVKQNHGGSLEWIGGINRDSGGTTYNQKFQDKVTLTVDKSSNTAYMELRSLTSEDSAVYYCTKWKFPWYFDVWGAGTTVTVSS VL: DIVLTQSPAIMSASPGEKVTMTCSASSSVSYMHWYQQKSGTSPKRWIYDTSKLASGVPARFSGSGSGTSYSLTISSMEAEDAATYYCQQWSSNPLTFGAGTKLELK |
